Test results taken from patent US7186459B2, “Liposome coated with polyhydroxyalkanoate and production method thereof” (priority 2001, dated 2007).

B1: YN2-C1: Purified PHA synthase derived from Pseudomonas cichorii YN2, from plasmid pYN2-C1 (SEQ ID NO: 2), 60.8 kDa (protein)
chain: MSNKSNDELKYQASENTLGLNPVVGLRGKDLLASARMVLRQAIKQPVHSVKHVAHFGLELKNVLLGKSGLQPTSDDRRFADPAWSQNPLYKRYLQTYLAWRKELHDWIDESNLAPKDVARGHFVINLMTEAMAPTNTAANPAAVKRFFETGGKSLLDGLSHLAKDLVHNGGMPSQVNMGAFEVGKSLGVTEGAVVFRNDVLELIQYKPTTEQVYERPLLVVPPQINKFYVFDLSPDKSLARFCLRNNVQTFIVSWRNPTKEQREWGLSTYIEALKEAVDVVTAITGSKDVNMLGACSGGITCTALLGHYAAIGENKVNALTLLVSVLDTTLDSDVALFVNEQTLEAAKRHSYQAGVLEGRDMAKVFAWMRPNDLIWNYWVNNYLLGNEPPVFDILFWNNDTTRLPAAFHGDLIELFKNNPLIRPNALEVCGTPIDLKQVTADIFSLAGTNDHITPWKSCYKSAQLFGGNVEFVLSSSGHIQSILNPPGNPKSRYMTSTEVAENADEWQANATKHTDSWWLHWQAWQAQRSGELKKSPTKLGSKAYPAGEAAPGTYVHER
modifications: Pseudomonas cichorii YN2 ; FERM BP-7375
B2: YN2-C2: Purified PHA synthase derived from Pseudomonas cichorii YN2, from plasmid pYN2-C2 (SEQ ID NO: 4), 61.5 kDa (protein)
chain: MRDKPARESLPTPAKFINAQSAITGLRGRDLVSTLRSVAAHGLRHPVHTARHALKLGGQLGRVLLGDTLHPTNPQDRRFDDPAWSLNPFYRRSLQAYLSWQKQVKSWIDESNMSPDDRARAHFAFALLNDAVSPSNSLLNPLAIKEIFNSGGNSLVRGIGHLVDDLLHNDGLPRQVTRHAFEVGKTVATTTGAVVFRNELLELIQYKPMSEKQYSKPLLVVPPQINKYYIFDLSPHNSFVQFALKNGLQTFVISWRNPDVRHREWGLSTYVEAVEEAMNVCRAITGAREVNLMGACAGGLTIAALQGHLQAKRQLRRVSSATYLVSLLDSQLDSPATLFADEQTLEAAKRRSYQKGVLEGRDMAKVFAWMRPNDLIWSYFVNNYLMGKEPPAFDILYWNNDNTRLPAALHGDLLDFFKHNPLSHPGGLEVCGTPIDLQKVTVDSFSVAGINDHITPWDAVYRSTLLLGGERRFVLANSGHVQSILNPPNNPKANYLEGAKLSSDPRAWYYDAKPVDGSWWTQWLGWIQERSGAQKETHMALGNQNYPPMEAAPGTYVRVR
modifications: Pseudomonas cichorii YN2 ; FERM BP-7375

System: PHA synthesizing enzyme
Test: Activity of purified PHA synthesizing enzyme (released CoA coloured with 5,5'-dithiobis-(2-nitrobenzoic acid), absorbance at 412 nm)
Type: biochemical, Pseudomonas cichorii YN2
Conditions: for Activity: 1 U = amount of enzyme releasing 1 μmol CoA per minute, substrate 3-hydroxyoctanoyl CoA, 30° C.; for Specific Activity: protein by Micro BCA
Source text: A various kinds of reported methods may be used for measuring activity of the PHA synthesizing enzyme, and for example, the activity may be measured by the following method in which as a measurement principle, CoA released in the process through which 3-hydroxyacyl CoA is polymerized under the catalytic action of the PHA synthesizing enzyme to form PHA is colored with 5,5′-dithiobis-(2-nitrobenzoic acid) to carry out measurements. Reagent 1: bovine serum albumin (manufactured by Sigma Co., Ltd.) is dissolved in a 0.1 M Tris hydrochloric buffer (pH 8.0) in the concentration of 3.0 mg/ml, Reagent 2: 3-hydroxyoctanoyl CoA is dissolved in a 0.1 M Tris hydrochloric buffer (pH 8.0) in the concentration of 3.0 mM, Reagent 3: trichloroacetic acid is dissolved in a 0.1 M Tris hydrochloric buffer (pH 8.0) in the concentration of 10 mg/ml, and Reagent 4: 5,5′-dithiobis-(2-nitrobenzoic acid) is dissolved in a 0.1 M Tris hydrochloric buffer (pH 8.0) in the concentration of 2.0 mM. First reaction (PHA synthesis reaction): 100 μl of Reagent 1 is added in 100 μl of sample (enzyme) solution and mixed together, and is pre-incubated at 30° C. for a minute. 100 μl of Reagent 2 is added thereto and mixed together, and is incubated at 30° C. for 1 to 30 minutes, followed by adding thereto Reagent 3 to stop the reaction. Second reaction (reaction of coloring free CoA): the first reaction solution of which reaction has been stopped is subjected to centrifugation (15,000×g, 10 minutes), and 500 μl of Reagent 4 is added in 500 μl of supernatant liquid of this solution, and is incubated at 30° C. for 10 minutes, followed by measuring an absorbance at 412 nm. Calculation of enzyme activity: the amount of enzyme for releasing 1 μmol of CoA per minute is defined as one unit (U).
The activity of each purified enzyme was measured by the aforesaid method. Also, the concentrations of proteins in the sample were measured by the Micro BCA protein quantification reagent kit (Pierce Chemical Co., Ltd.).

Molecule | Activity [U/mL] | Specific Activity [U/mg Protein]
B1 | 2.1 | 4.1
B2 | 1.5 | 3.6
